Test results published in patent publication US20080254507A1.

Target: envelope glycoprotein derived from T-tropic HIV-1 (gp120, gp41) (HIV-1 (T-tropic))
Assay: cell-based or functional assay

| Substance | concentration that inhibit 50% of syncytium formation (IC50) |
| --- | --- |
| His-tagged actinohivin monomer fusion protein (from UniProt Q9KWN0 47-160) | 0.58 |
| His-tagged actinohivin dimer fusion protein (from UniProt Q9KWN0 47-160) | 0.235 |
